These results are taken from patent US20180142000A1 (NATIONAL RESEARCH COUNCIL OF CANADA, published 2018).

For this assay, the target named is FlagV1P. As to the kind of experiment: fluorescence microscopy with FITC-labeled pentabody on whole bacteria.

B1: C. jejuni strain 11168 flagella (other)
chain 1: GFRINTNVAALNAKANADLNSKSLDASLSRLSSGLRINSAADDASGMAIADSLRSQANTLGQAISNGNDALGILQTADKAMDEQLKILDTIKTKATQAAQDGQSLKTRTMLQADINRLMEELDNIANTTSFNGKQLLSGNFINQEFQIGASSNQTVKATIGATQSSKIGLTRFETGGRISTSGEVQFTLKNYNGIDDFQFQKVVISTSVGTGLGALADEINKNADKTGVRATFTVETRGIAAVRAGATSDTFAINGVKIGKVDYKDGDANGALVAAINSVKDTTGVEASIDANGQLLLTSREGRGIKIDGNIGGGAFINADMKENYGRLSLVKNDGKDILISGSNLSSAGFGATQFISQASVSLRESKGQIDANIADAMGFGSANKGVVLGGYSSVSAYMSSAGSGFSSGSGYSVGSGKNYSTGFANAIAISAASQLSTVYNVSAGSGFSSGSTLSQFATMKTTAFGVKDETAGVTTLKGAMAVMDIAETAITNLDQIRADIGSVQNQVTSTINNITVTQVNVKAAESQIRDVDFAAESANYSKANILAQSGSYAMAQANSVQQNVLRLLQ
chain 2: GFRINTNIGALNAHANSVVNARELDKSLSRLSSGLRINSAADDASGMAIADSLRSQAATLGQAINNGNDAIGILQTADKAMDEQLKILDTIKTKATQAAQDGQSLKTRTMLQADINRLMEELDNIANTTSFNGKQLLSGNFINQEFQIGASSNQTIKATIGATQSSKIGLTRFETGGRISSSGEVQFTLKNYNGIDDFQFQKVVISTSVGTGLGALAEEINKSADKTGVRATFTVETRGIAAVRAGTTSDTFAINGVTIGQVAYEDGDGNGALVAAINSVKDTTGVEASIDANGQLLLTSREGRGIKIDGNIGGGAFINADMKENYGRLSLVKNDGKDILISGSNLSSAGFGATQFISQASVSLRESKGRFDANIADAMGFGSANKGVVLGGYSSVSAYMSSAGSGFSSGSGYSVGSGKNYSTGFANAIAISAASQLSTVYNVSAGSGFSSGSTLSQFATMKTTAFGVKDETAGVTTLKGAMAVMDIAETATTNLDQIRADIGSVQNQLQVTINNITVTQVNVKAAESTIRDVDFAAESANFSKYNILAQSGSYAMSQANAVQQNVLKLLQ
Regarding B1, the binding result is given as “no binding”.
